For experiment [1], the target named is T1, mature myostatin (recombinant, dimeric) (mouse polyprotein used for in-house …, UniProt O08689 268-376).
T1 sequence: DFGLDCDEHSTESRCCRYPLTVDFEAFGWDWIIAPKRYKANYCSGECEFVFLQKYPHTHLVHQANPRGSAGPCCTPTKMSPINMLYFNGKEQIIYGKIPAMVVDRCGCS
The experiment is described as follows: cell-based or functional assay.

Experiment [2] has as its target T1, mature myostatin (recombinant, dimeric). The experiment is described as follows: BIAcore, low density myostatin surface.
For experiment [3] the target is unchanged. Description: BIAcore, low density myostatin surface, methods as in 4.3. (In general: Surface plasmon resonance follows binding to a sensor surface in real time, without labels.)
Experiment [4] has the same target. The experiment is described as follows: myostatin binding ELISA after 48 h at 37 C in PBS (Examples 5.2, 4.2), A490. (In general: ELISA stands for enzyme-linked immunosorbent assay.)
The target is the same in experiment [5]. The experiment is described as follows: cell-based or functional assay. This is another data set of the same source.
Experiment [6] has the same target. The experiment is described as follows: cell-based or functional assay. The source holds these as a separate data set.
Experiment [7] shares this target. Description: cell-based or functional assay. The source holds these as a separate data set.
The target is the same in experiment [8]. Description: cell-based or functional assay. The source holds these as a separate data set.
Experiment [9] has the same target. The experiment is described as follows: ELISA, plate-coated myostatin (R&D Systems), mean EC50. The procedure:
10B3 and 10B3 chimera (10B3C) bound myostatin (R&D Systems, 788-G8-010/CF) in a sandwich ELISA. Plates were coated with myostatin at 10 ng/well and blocked with Block solution (PBS, 0.1% TWEEN and 1% BSA). Following washing (PBS, 0.1% TWEEN), antibody was incubated at 37° C. for 2 hours over a dilution series and plates washed again prior to incubation at 37° C. for 1 hour with anti-mouse HRP or anti-human HRP (Dako, P0161 & Sigma, A-8400, respectively). Plates were again washed and OPD substrate (Sigma, P9187) added until colourometric reaction occurred and the reaction stopped by the addition of H₂SO₄.

Experiment [10] shares this target. The experiment is described as follows: BIAcore, low density myostatin surface, antibody analyte, 1:1 model. How it is done: (§1) Purified H0L0, H1L2 and H2L2 bound recombinant myostatin by BIAcore™ Recombinant myostatin was immobilised at three different densities (low, medium and high, to give R-max values of approximately 35, 120 and 350 RU's respectively) onto a BIAcore™ chip. Antibodies were passed over at 256, 64, 16, 4 and 1 nM. 0 nM antibody was used for double referencing and data was fitted to the 1:1 model.

Experiment [11] has the same target. The experiment is described as follows: BIAcore, high density myostatin surface, antibody analyte, 1:1 model (poor fits). The procedure: as §1
Experiment [12] shares this target. The experiment is described as follows: BIAcore, medium density myostatin surface, antibody analyte, 1:1 model (poor fits). The procedure:
as §1

Experiment [13] has the same target. The experiment is described as follows: ELISA: inhibition of 2 nM biotinylated myostatin binding to plate-coated ActRIIb, mean IC50. The procedure: Recombinant soluble ActRIIb (R&D Systems 339-RBB) was coated in wells of an ELISA plate at 1 μg/ml in carbonate buffer overnight at 4° C. Plates were blocked (see Block solution above at 2.3) and washed following standard ELISA protocols. In parallel, 2 nM biotinylated myostatin (in-house, as described in 1.1, biotinylated material) was pre-incubated with an antibody dilution series consisting of 10B3, 10B3C, and a negative control (IgG1 isotype control) for 2 hours at 37° C. The biotinylated myostatin:antibody reactions were then added to the ActRIIb coated plate for 1 hour at 37° C. Standard wash procedures were followed prior to addition of 1:1000 diluted streptavidin-HRP conjugate (Dako P0397) and a further 37° C. incubation for 1 hour. Plates were again washed and assayed at absorbance 490 nm following OPD substrate (Sigma) and acid stop solution treatment Inhibition curves and IC50 values for the inhibition of myostatin activity are shown in FIG. 5 and Table 8 respectively.

Experiment [14] has the same target. The experiment is described as follows: BIAcore T100, antibody captured on protein A (C1 chip), myostatin analyte, all curves 1:1 model. The procedure:
(§2) The affinity of 10B3 mouse parental and 10B3C for recombinant myostatin was assessed by BIAcore™ (surface plasmon resonance) analysis. Analysis was carried out by the use of a capture surface: anti-mouse IgG was coupled to a C1 chip by primary amine coupling for 10B3 mouse parental; and a protein A surface was created on a C1 chip by primary amine coupling for 10B3 chimera.
(§3) After capture, recombinant myostatin was passed over the surface at 64 nM, 16 nM, 4 nM, 1 nM, 0.25 nM and 0.0625 nM, with a buffer injection (i.e. 0 nM) used for double referencing. There was a regeneration step between each analyte injection, after which the new antibody capture event occurred before the next injection of myostatin. The data was analysed using both the 1:1 model and the Bivalent model inherent to the T100 machines analysis software (see Table 6). Both capture surfaces could be regenerated using 100 mM phosphoric acid, the work was carried out using HBS-EP as the running buffer and using 25° C. as the analysis temperature.

The target is the same in experiment [15]. Description: BIAcore T100, antibody captured on protein A (C1 chip), myostatin analyte, all curves Bivalent model. How it is done: as §2, §3
Experiment [16] shares this target. Description: myostatin binding ELISA with purified antibody (made in CHOE1a), 10 ng/well recombinant myostatin coated, anti-human kappa HRP, A490 (Examples 4.1, 4.2). How it is done:
The myostatin binding ELISA was carried out approximately according to this protocol. A 96-well ELISA plate was coated at 4° C. overnight with 10 ng/well recombinant myostatin. This plate was then washed 3-times in wash buffer (PBS, 0.1% Tween-20). The wells were blocked for 1 hour at room temperature with block solution (PBS, 0.1% Tween-20+1% bovine serum albumin [BSA]), before washing 3-times in wash buffer. Antibodies were then titrated out to a suitable concentration range (approximately 100 to 0.001 μg/ml), added to the plate and incubated for 1 hour at room temperature. The plate was then washed 3-times in wash buffer. An anti-mouse IgG HRP-conjugated antibody (P0260 by Dako, this reagent was used according to the manufacturer's instructions) was used to detect binding of mouse antibodies, such as 10B3. An anti-human kappa light chain HRP-conjugated antibody (A7164 by Sigma Aldridge, this reagent was used according to the manufacturer's instructions) was used to detect binding of humanized or chimeric antibodies, such as 10B3 chimera or H0L0. The plate was then washed 3-times in wash buffer and developed with an OPD substrate (from Sigma, used according to the manufacturer's instructions) and read at 490 nm on a plate reader.

This is an account of results in patent publication US20110256132A1 (published 2011).

One may read the EC50 (read off the curve) as the concentration giving half of the maximal effect. What is called EC50 is the concentration at which the effect is half-maximal. Usually koff stands for the first-order rate constant of dissociation. The term kon denotes the second-order rate constant of association. The term IC50 denotes the concentration that inhibits the measured activity by half.

Where two headings read alike, the source gives them in different places.

B1: H2L2 N54Q (H2L2-N54Q) (antibody, human IgG1, kappa, V domains shown)
VH: QVQLVQSGAEVKKPGASVKVSCKASGYSFTGYFMHWVRQAPGQGLEWMGNIYPYQGVSNYNQRFKARVTMTTDTSTSTAYMELRSLRSDDTAVYYCARRYYYGTGPADWYFDVWGQGTLVTVSS
VL: DIQMTQSPSSLSASVGDRVTITCKASQDINSYLSWFQQKPGKAPKSLIYRANRLVDGVPSKFSGSGSGTDYTLTISSLQPEDFATYYCLQCDEFPLTFGQGTKLEIKR
On to B1, for which the “Mean IC50, A204 in vitro activity assay” value in experiment [1] was 12 nM. For the same molecule, in experiment [2], the “fold loss in affinity against H2L2” value is ≥ 2 fold. Besides, the Kd in experiment [3] was 28 nM. The “EC50 (read off the curve)” value in experiment [4] is ~1 nM.

B2: 10B3 chimera (antibody, human IgG1, kappa, V domains shown)
VH: EVQLQQSGPELVKPGASVKISCKASGYSFTGYFMHWVKQSHGNILDWIGNIYPYNGVSNYNQRFKAKATLTVDKSSSTAYMELRSLTSEDSAVYYCARRYYYGTGPADWYFDVWGTGTLVTVSS
VL: DIKMTQSPSSMYASLRERVTITCKASQDINSYLSWFQQKPGKSPKTLIYRANRLVDGVPSRFSGSGSGQDYSLTISSLEYEDMGIYYCLQCDEFPLTFGAGTKLELKR
notes: Mouse variable regions on human IgG1/kappa wild type constant regions; also called HCLC; HcLc
Consider B2, for which the “Mean IC50, myostatin responsive reporter gene assay (A204 cells, luciferase)” value in experiment [5] came to 6.2 nM. In addition, the entries for the “Mean IC50, A204 in vitro activity assay” value in [6], in experiment [1] and in [8] were 5.1 nM, 8.45 nM and 3.57 nM, respectively. For the same molecule, the “Mean IC50, A204 in vitro activity assay (5 nM myostatin)” value in experiment [7] was found to be 3.53 nM. Besides, the concentration giving a half-maximal response (EC50) in experiment [9] was determined as 0.049 µg/mL. The Kd worked out at 4.44 nM in experiment [3]; 1.61 nM in experiment [10]; 0.882 nM in experiment [11]; 1.35 nM in experiment [12]; 0.088 nM in experiment [14]; 3.6 nM in experiment [15]. In addition, the results for the koff in [10], in [11] and in experiment [12] were 0.000967 s⁻¹, 0.000218 s⁻¹ and 0.000559 s⁻¹, respectively. Further, the kon in experiment [10] worked out at 599000 M⁻¹ s⁻¹; in experiment [11], 248000 M⁻¹ s⁻¹; in experiment [12] it was 413000 M⁻¹ s⁻¹. Further, the IC50 in experiment [13] stood at 0.138 µg/mL. Further, the half-maximal effective concentration (EC50 (read off the curve)) in experiment [16] is ~0.1 µg/mL.
